# T1: human LAG3 expressed on the cell surface (CHO-LAG3, 293T-LAG3 cells) (human, UniProt P18627 23-525)
# T1 construct: Stably transfected CHO or HEK293T cells; also called Human LAG3 (CHO); Human LAG3 (293T)
# T1 sequence: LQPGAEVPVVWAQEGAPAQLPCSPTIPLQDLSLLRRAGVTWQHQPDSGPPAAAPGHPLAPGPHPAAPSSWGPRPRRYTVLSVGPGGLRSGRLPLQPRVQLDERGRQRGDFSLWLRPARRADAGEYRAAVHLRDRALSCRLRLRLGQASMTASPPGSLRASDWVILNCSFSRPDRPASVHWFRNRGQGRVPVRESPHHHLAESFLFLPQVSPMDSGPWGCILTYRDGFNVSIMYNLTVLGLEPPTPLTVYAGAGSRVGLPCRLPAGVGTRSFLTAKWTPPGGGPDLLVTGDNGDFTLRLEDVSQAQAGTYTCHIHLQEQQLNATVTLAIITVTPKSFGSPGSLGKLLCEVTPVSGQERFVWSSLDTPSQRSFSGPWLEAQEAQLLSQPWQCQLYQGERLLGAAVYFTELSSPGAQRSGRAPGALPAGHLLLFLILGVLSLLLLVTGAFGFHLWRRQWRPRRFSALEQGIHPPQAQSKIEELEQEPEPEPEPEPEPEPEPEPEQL
# Columns and labels:
# [1] = molecular target: T2, hPD1 (Acro Biosystems), SPR analyte (human, UniProt Q15116 25-167); test: SPR (Biacore), antibody captured by anti-Fc, hPD1 as analyte, 25 C
# T2 construct: also called human PD1 kinetics
# Experimental: Anti-Fc polyclonal antibodies were immobilized onto a CMS chip (GE Life Sciences) using amine coupling chemistry (from Amine Coupling Kit, GE Life Sciences). The immobilization steps were carried out at a flow rate of 25 μl/min in 1×HBS-EP+buffer (GE Life Sciences; 10× Stock diluted before use). The sensor surfaces were activated for 7 min with a mixture of NHS (0.05 M) and EDC (0.2 M). The Anti-Fc antibodies were injected over all 4 flow cells at a concentration of 25 ug/ml in 10 mM sodium acetate, pH 4.5, for 7 min. Ethanolamine (1 M, pH 8.5) was injected for 7 min to block any remaining activated groups. An average of 12,000 response units (RU) of capture antibody was immobilized on each flow cell.
# Kinetic binding experiments were performed at 25° C. using 1×HBS-EP+buffer. Test and control antibodies were injected over the anti-Fc surface at concentrations of 5-10 μg/mL for 12 seconds at a flow rate of 10 μl/min on flow cells 2, 3 and 4, followed by a buffer wash for 30 seconds at the same flow rate. Kinetic characterization of antibody samples was carried out with a dilution series of antigen and 1 injection of 0 nM antigen. After capturing ligand (antibody) on the anti-Fc surface, the analyte (hPD1 or hLAG3, Acro Biosystems, Newark, Del.) was bound at 100, 25, 6.25 and 0 nM for 180 seconds, followed by a 450 second dissociation phase at a flow rate of 50 μl/min. Between each ligand capture and analyte binding cycle, regeneration was carried out using 2 injections of 10 mM Glycine pH 2.0 for 30 seconds at 30 μL/min, followed by a 30 second buffer wash step.
# The data was fit with the Biacore T200 Evaluation software, using a 1:1 Langmuir binding model. KD (affinity, nM) was determined as a ratio of the kinetic rate constants calculated from the fits of the association and dissociation phases.
# [2] = molecular target: T3, human PD-1 expressed on the surface of CHO cells (human, UniProt Q15116 25-288); test: flow cytometry cell binding on CHO cells expressing human PD-1; PE anti-human IgG detection; one site-specific binding with Hill slope fit
# T3 construct: I took it as human PD-1; also called CHO-PD1
# Experimental: (§1) CHO-k cells stably expressing PD-1 or LAG3 (human or cynomolgus) on the cell surface were used to assess binding affinity of anti-PD-1/LAG3 bispecific antibody constructs. Cells were seeded at 100,000 cells/well in 100 μL of FACS buffer (1×PBS, 0.5% BSA, 0.1% sodium azide) in 96-well polypropylene plates. The cells were centrifuged at 1.5K rpm and resuspended with test antibodies diluted in FACS buffer and incubated on ice for 1 hour. The cells were washed twice with FACS buffer and incubated on ice for 30 mins with R-Phycoerythrin-AffiniPure F(ab′)2 Fragment Goat Anti-Human IgG (H+L) secondary detection antibody (1:200 dilution, Jackson ImmunoResearch Laboratories, West Grove, Pa.). The cells were washed twice with FACS buffer, fixed in 4% paraformaldehyde in PBS (Santa Cruz Biotechnology; Dallas, Tex.) for 20 mins on ice in the dark, washed twice with FACS buffer, and analyzed using the BD LSR II Flow Cytometer (BD Biosciences; San Jose, Calif.). Data were analyzed using FlowJo (FlowJo, LLC; Ashland, Oreg.) to determine mean fluorescence intensities. Binding constants were calculated using the statistical software, GraphPad Prism (GraphPad Software; La Jolla, Calif.) using the nonlinear regression equation, one site—specific binding with Hill slope. The secondary antibody by itself was used as a control.
# [3] = molecular target: T1, human LAG3 expressed on the cell …; test: flow cytometry cell binding on CHO cells expressing human LAG3; PE anti-human IgG detection; one site-specific binding with Hill slope fit
# Experimental: as §1
# T2 sequence (Q15116 25-167 limits assumed): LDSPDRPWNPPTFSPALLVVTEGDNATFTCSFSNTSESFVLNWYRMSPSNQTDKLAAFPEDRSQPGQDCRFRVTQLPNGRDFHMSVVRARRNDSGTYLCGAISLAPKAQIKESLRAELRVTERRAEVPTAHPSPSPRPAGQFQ
# T3 sequence (Q15116 25-288 limits assumed): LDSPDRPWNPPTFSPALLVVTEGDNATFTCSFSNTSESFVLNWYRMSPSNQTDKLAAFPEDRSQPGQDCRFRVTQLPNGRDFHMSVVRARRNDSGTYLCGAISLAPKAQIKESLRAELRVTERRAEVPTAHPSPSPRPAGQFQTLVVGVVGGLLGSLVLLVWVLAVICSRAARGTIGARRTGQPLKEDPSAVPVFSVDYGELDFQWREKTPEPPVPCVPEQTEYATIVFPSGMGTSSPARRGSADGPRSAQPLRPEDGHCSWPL
Binder,Kd [1] [nM],koff [1] [s⁻¹],kon [1] [M⁻¹ s⁻¹],Bmax [2] [MFI],Kd [2] [nM],Bmax [3] [MFI],Kd [3] [nM]
"PD-1/LAG3 Bi-specific Construct B: aPD1 1353-G10 scFvFc zwB R28T/P30D/H31S V262E; aLAG3 1449-G09.2 Fab zwA V262E (bispecific antibody, human IgG1, kappa, The N-terminal Met is not included) scFv: EVQLVQSGAEVKKPGASVKVSCKASGYTFDSYGISWVRQAPGQGLEWMGWISAYNGNTNYAQKLQGRVTMTTDTSTNTAYMELRSLRSDDTAVYYCARDVDYGTGSGYWGQGTLVTVSSGGGGSGGGGSGGGGSSYELTQPPSVSVSPGQTARITCSGDALPKQYAYWYQQKPGQAPVMVIYKDTERPSGIPERFSGSSSGTKVTLTISGVQAEDEADYYCQSADNSITYRVFGGGTKVTVLAAGSDQEPKSSDKTHTCPPCPAPELLGGPSVFLFPPKPKDTLMISRTPEVTCEVVDVSHEDPEVKFNWYVDGVEVHNAKTKPREEQYNSTYRVVSVLTVLHQDWLNGKEYKCKVSNKALPAPIEKTISKAKGQPREPQVYVLPPSREEMTKNQVSLLCLVKGFYPSDIAVEWESNGQPENNYLTWPPVLDSDGSFFLYSKLTVDKSRWQQGNVFSCSVMHEALHNHYTQKSLSLSPGK heavy: not shown light: not shown",4.37,0.00487,1.12e+06,1970,4.3,975,0.4
"PD-1/LAG3 Bi-specific Construct C: aPD1 1353-G10 Vk1-39LC scFvFc zwB V262E; aLAG3 1449-G09.2 Fab zwA V262E (bispecific antibody, human IgG1, kappa, The N-terminal Met is not included) scFv: EVQLVQSGAEVKKPGASVKVSCKASGYRFPHYGISWVRQAPGQGLEWMGWISAYNGNTNYAQKLQGRVTMTTDTSTNTAYMELRSLRSDDTAVYYCARDVDYGTGSGYWGQGTLVTVSSGGGGSGGGGSGGGGSDIQLTQSPSSLSASVGDRVTITCSGDALPKQYAYWYQQKPGKAPKLLIYKDTERPSGVPSRFSGSSSGTKVTLTISSLQPEDFATYYCQSADNSITYRVFGGGTKVEIKAAGSDQEPKSSDKTHTCPPCPAPELLGGPSVFLFPPKPKDTLMISRTPEVTCEVVDVSHEDPEVKFNWYVDGVEVHNAKTKPREEQYNSTYRVVSVLTVLHQDWLNGKEYKCKVSNKALPAPIEKTISKAKGQPREPQVYVLPPSREEMTKNQVSLLCLVKGFYPSDIAVEWESNGQPENNYLTWPPVLDSDGSFFLYSKLTVDKSRWQQGNVFSCSVMHEALHNHYTQKSLSLSPGK heavy: not shown light: not shown",1.29,0.000649,503000,3660,1.5,1020,0.5

# Reference: patent US20200079850A1 (SUTRO BIOPHARMA, published 2020)
